Like-named read-outs stand apart in the source and are kept apart here. Bridge positions count the residues as written; N and C are the ends. Square brackets hold non-standard residues; d marks the D form. * marks the point of attachment. 5FAM = O=C1OC2(c3ccc(O)cc3Oc3cc(O)ccc32)c2ccc(C(=O)*)cc21; Ach = 2-aminocyclohexane-1-carboxylic acid; hArg = N=C(N)NCCCC[C@H](N)C(=O)O; Dap = NC[C@H](N)C(=O)O; Pentanoyl = CCCCC(=O)*
Experiments:
PCSK9Δhelix = target: T1, PCSK9Δhelix (human, UniProt Q8NBP7 31-152); test: TR-FRET competition, Ab20 as competitor
T1 construct: domain: prodomain; Construct M1-Q692 with engineered TEV site, cut with TEV; His-tagged (tag not written as a part); also called His-PCSK9Δhelix; open groove PCSK9Δhelix

[1] = target: T2, human PCSK9 (proprotein convertase subtilisin/kexin type 9), His-tagged, full-length (human, UniProt A8T644 31-152; Q8NBP7 153-692, limits assumed); test: TR-FRET competition vs EGF(A)-Fc on His-PCSK9
T2 construct: The secreted protein is the prodomain plus the catalytic/Cys-rich part (N-terminus S153) after autocleavage; also called His-PCSK9; NARC-1

[2] = target: T2, human PCSK9 (proprotein convertase …); test: SPR, Biacore T100, NTA capture, single cycle kinetics (Method 2)
[3] = target: T2, human PCSK9 (proprotein convertase …); test: SPR, Biacore T100, His-tagged protein captured on NTA chip (Method 1)
[4] = target: T2, human PCSK9 (proprotein convertase …); test: TR-FRET competition vs EGF(A)-Fc on His-PCSK9; remark: listed apart in the source
[5] = target: T2, human PCSK9 (proprotein convertase …); test: SPR, SensiQ Pioneer FE, amine-coupled protein, OneStep gradient injection (Method 3)
[6] = target: T2, human PCSK9 (proprotein convertase …); test: TR-FRET competition vs EGF(A)-Fc on His-PCSK9; remark: listed apart in the source

T2 sequence (A8T644 31-152 limits assumed, chain 1 of 2): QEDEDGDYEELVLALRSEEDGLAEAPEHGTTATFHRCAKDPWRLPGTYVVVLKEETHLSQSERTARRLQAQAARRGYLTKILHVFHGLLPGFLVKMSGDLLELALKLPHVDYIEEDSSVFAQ
T2 sequence (A8T644 other isoform, or with tags, fused parts or gaps limits assumed, chain 2 of 2): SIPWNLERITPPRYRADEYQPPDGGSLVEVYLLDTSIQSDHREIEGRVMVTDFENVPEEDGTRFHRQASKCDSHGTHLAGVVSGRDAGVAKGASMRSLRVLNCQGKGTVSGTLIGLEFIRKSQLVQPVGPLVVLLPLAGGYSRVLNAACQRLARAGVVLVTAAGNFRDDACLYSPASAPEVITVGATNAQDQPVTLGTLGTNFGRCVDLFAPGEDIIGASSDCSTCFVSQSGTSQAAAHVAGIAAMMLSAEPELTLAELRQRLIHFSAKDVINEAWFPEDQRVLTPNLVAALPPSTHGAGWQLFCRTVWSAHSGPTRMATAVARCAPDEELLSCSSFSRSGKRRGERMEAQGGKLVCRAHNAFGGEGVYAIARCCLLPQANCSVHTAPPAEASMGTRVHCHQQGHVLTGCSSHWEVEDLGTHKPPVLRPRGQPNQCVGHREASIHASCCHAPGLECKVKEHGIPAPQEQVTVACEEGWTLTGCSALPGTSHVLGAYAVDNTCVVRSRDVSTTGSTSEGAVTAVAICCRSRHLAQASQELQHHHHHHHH
T1 sequence (Q8NBP7 31-152 limits assumed, stated change not applied, form in doubt, chain 1 of 2): as the sequence (A8T644 31-152 limits assumed, chain 1 of 2) above
T1 sequence (Q8NBP7 other isoform, or with tags, fused parts or gaps mutant limits assumed, form in doubt, chain 2 of 2): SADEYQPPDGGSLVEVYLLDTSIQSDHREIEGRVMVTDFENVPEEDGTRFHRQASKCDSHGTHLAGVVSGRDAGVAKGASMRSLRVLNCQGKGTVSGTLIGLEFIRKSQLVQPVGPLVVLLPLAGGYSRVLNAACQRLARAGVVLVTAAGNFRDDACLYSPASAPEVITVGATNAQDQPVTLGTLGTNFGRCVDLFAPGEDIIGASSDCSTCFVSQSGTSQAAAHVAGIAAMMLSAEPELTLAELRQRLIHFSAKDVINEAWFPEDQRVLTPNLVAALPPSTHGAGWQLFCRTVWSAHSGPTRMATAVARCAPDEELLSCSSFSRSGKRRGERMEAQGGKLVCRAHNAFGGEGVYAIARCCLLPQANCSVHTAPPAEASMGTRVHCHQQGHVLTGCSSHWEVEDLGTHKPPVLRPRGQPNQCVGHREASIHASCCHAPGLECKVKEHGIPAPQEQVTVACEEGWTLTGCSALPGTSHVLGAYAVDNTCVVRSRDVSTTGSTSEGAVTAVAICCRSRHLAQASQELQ

B1: Compound 229 (peptide)
peptide: Ac-MESFPGWNLV[hArg]IGLLR-NH2
SMILES: CC[C@H](C)[C@H](NC(=O)[C@H](CCCCNC(=N)N)NC(=O)[C@@H](NC(=O)[C@H](CC(C)C)NC(=O)[C@H](CC(N)=O)NC(=O)[C@H](Cc1c[nH]c2ccccc12)NC(=O)CNC(=O)[C@@H]1CCCN1C(=O)[C@H](Cc1ccccc1)NC(=O)[C@H](CO)NC(=O)[C@H](CCC(=O)O)NC(=O)[C@H](CCSC)NC(C)=O)C(C)C)C(=O)NCC(=O)N[C@@H](CC(C)C)C(=O)N[C@@H](CC(C)C)C(=O)N[C@@H](CCCNC(=N)N)C(N)=O
In the case of B1, the “fold improvement of affinity against Compound 192” value (PCSK9Δhelix) is reported as > 6 fold.

B2: Compound 2 (peptide)
peptide: Ac-TVFTSWEEYLDWVGSGCWNLKRIGSQGC-NH2
modifications: disulfide 17-28
SMILES: CC[C@H](C)[C@@H]1NC(=O)[C@H](CCCNC(=N)N)NC(=O)[C@H](CCCCN)NC(=O)[C@H](CC(C)C)NC(=O)[C@H](CC(N)=O)NC(=O)[C@H](Cc2c[nH]c3ccccc23)NC(=O)[C@@H](NC(=O)CNC(=O)[C@H](CO)NC(=O)CNC(=O)[C@@H](NC(=O)[C@H](Cc2c[nH]c3ccccc23)NC(=O)[C@H](CC(=O)O)NC(=O)[C@H](CC(C)C)NC(=O)[C@H](Cc2ccc(O)cc2)NC(=O)[C@H](CCC(=O)O)NC(=O)[C@H](CCC(=O)O)NC(=O)[C@H](Cc2c[nH]c3ccccc23)NC(=O)[C@H](CO)NC(=O)[C@@H](NC(=O)[C@H](Cc2ccccc2)NC(=O)[C@@H](NC(=O)[C@@H](NC(C)=O)[C@@H](C)O)C(C)C)[C@@H](C)O)C(C)C)CSSC[C@@H](C(N)=O)NC(=O)CNC(=O)[C@H](CCC(N)=O)NC(=O)[C@H](CO)NC(=O)CNC1=O
B2 showed an IC50 [1] of 110 nM and a Kd [2] of 30.3 nM.

Work on Ac-TVFTSWEEYLDWVGSGCWNLGRIGSQGC-NH2 (disulfide 17-28 (inferred)) [Compound 11] yielded an IC50 [1] of 340 nM.

Work on Ac-TVFTSWEEYLDWVGSGCWNLKRVGSQGC-NH2 (disulfide 17-28 (inferred)) [Compound 12] yielded an IC50 [1] of 190 nM.

Ac-TVFTSWEEYLDWVGSGCRLPWNLQRIGLPC-NH2 (disulfide 17-30 (inferred), also called Pep2-8p4; Pep2-8_K9gvpep4) [Compound 19] was tested, and the IC50 [1] was 9 nM and the Kd [3] was 2.07 nM.

With Ac-TVFTSWEEYLDWVGSGDLMPWNLVRIGLLR-NH2 (also called Pep2-8p7; Pep2-8_K9gvpep7) [Compound 20] the IC50 [4] was 37 nM and the Kd [3] was 5.56 nM.

With Ac-SPCRVGYTPC-NH2 (disulfide 3-10 (inferred)) [Compound 23] the Kd [2] was 5740 nM.

For H-SGCFIPWNLQRIGLLC-NH2 (disulfide 3-16 (inferred)) [Compound 26], the Kd [3] was 29000 nM.

B3: Compound 28 (peptide)
peptide: SGDLMPWNLVRIGLLR
notes: Printed without N-terminal cap and without C-terminal amide
With B3 the Kd [3] was 46100 nM.

Binder 5FAM-SGSGCRLPWNLQRIGLPC-NH2 (disulfide 5-18 (inferred)) [Compound 34] has a Kd [5] of 4470 nM.

With Ac-ALMPWNLVRIGLLR-NH2 [Compound 45] the IC50 [6] was > 50000 nM and the Kd [5] was 117000 nM.

In the case of Ac-DLMPWNLVRIGLAR-NH2 [Compound 55], the IC50 [6] is reported as > 50000 nM and the Kd [5] is reported as 96500 nM.

With Ac-LMPWNLVRIGLLR-NH2 [Compound 50] the IC50 [6] was > 50000 nM and the Kd [5] was 16100 nM.

Ac-MPWNLVRIGLLR-NH2 [Compound 51] was tested, and the IC50 [6] was > 50000 nM and the Kd [5] was 26200 nM.

In the case of Ac-PWNLVRIGLLR-NH2 [Compound 52], the IC50 [6] is reported as > 50000 nM and the Kd [5] is reported as 17900 nM.

Ac-WNLVRIGLLR-NH2 [Compound 53] was tested, and the IC50 [6] was > 50000 nM and the Kd [5] was 223000 nM.

In the case of Ac-CRL[Ach]WNLQRIGLPC-NH2 (disulfide 1-14) [Compound 82], the Kd [5] is reported as 118000 nM.

B4: Compound 96 (peptide)
peptide: Ac-FCLWNLKRIGAQCWF-NH2
modifications: disulfide 2-13
SMILES: CC[C@H](C)[C@@H]1NC(=O)[C@H](CCCNC(=N)N)NC(=O)[C@H](CCCCN)NC(=O)[C@H](CC(C)C)NC(=O)[C@H](CC(N)=O)NC(=O)[C@H](Cc2c[nH]c3ccccc23)NC(=O)[C@H](CC(C)C)NC(=O)[C@@H](NC(=O)[C@H](Cc2ccccc2)NC(C)=O)CSSC[C@@H](C(=O)N[C@@H](Cc2c[nH]c3ccccc23)C(=O)N[C@@H](Cc2ccccc2)C(N)=O)NC(=O)[C@H](CCC(N)=O)NC(=O)[C@H](C)NC(=O)CNC1=O
Binder B4 has a Kd [5] of 46400 nM.

B5: Compound 97 (peptide)
peptide: Ac-GSGCWNL[Dap]RIGSQGC-NH2
modifications: disulfide 4-15
SMILES: CC[C@H](C)[C@@H]1NC(=O)[C@H](CCCNC(=N)N)NC(=O)[C@H](CN)NC(=O)[C@H](CC(C)C)NC(=O)[C@H](CC(N)=O)NC(=O)[C@H](Cc2c[nH]c3ccccc23)NC(=O)[C@@H](NC(=O)CNC(=O)[C@H](CO)NC(=O)CNC(C)=O)CSSC[C@@H](C(N)=O)NC(=O)CNC(=O)[C@H](CCC(N)=O)NC(=O)[C@H](CO)NC(=O)CNC1=O
notes: also called Ac-GSG-CWNL(Dpr)RIGSQGC-NH2
Work on B5 yielded a Kd [5] of 522000 nM.

Binder Ac-TVFTSWEEYLDWVGSGKLWNLGRV-NH2 [Compound 1] has an IC50 [4] of 388 nM.

With Ac-TVFTSWEEYLDWVGSGKLWNLGR-NH2 [Compound 4] the IC50 [4] was 490 nM.

In the case of Ac-TVFTSWEEYLDWVGSGKLWNLG-NH2 [Compound 5], the IC50 [4] is reported as 720 nM.

Ac-TVFTSWEEYLDWVGSGKLWNL-NH2 [Compound 6] was tested, and the IC50 [4] was 740 nM.

For Ac-TVFTSWEEYLDWVGSGKLWN-NH2 [Compound 7], the IC50 [4] was 500 nM.

Ac-TVFTSWEEYLDWVGGSGKLWNLGRV-NH2 [Compound 8] gave an IC50 [4] of 1030 nM.

For Ac-TVFTSWEEYLDWVGSGGKLWNLGRV-NH2 [Compound 9], the IC50 [4] was 390 nM.

Ac-TVFTSWEEYLDWVGSGGCRLPWNLQRIGLPC-NH2 (disulfide 18-31 (inferred)) [Compound 25] was tested, and the IC50 [1] was 781 nM.

In the case of Ac-TVFTSWEEYLDWVGSGGCFLPWNLQRIGLLC-NH2 (disulfide 18-31 (inferred)) [Compound 38], the IC50 [1] is reported as 471 nM.

For Ac-TVFTSWEEYLDWVGGSGCWNLKRIGSQGC-NH2 (disulfide 18-29 (inferred)) [Compound 13], the IC50 [1] was 10 nM.

For Ac-TVFTSWEEYLDWVGSGGCWNLKRIGSQGC-NH2 (disulfide 18-29 (inferred)) [Compound 14], the IC50 [1] was 9 nM.

B6: Compound 112 (peptide)
peptide: Pentanoyl-WNLVRIGLTR-NH2
SMILES: CCCCC(=O)N[C@@H](Cc1c[nH]c2ccccc12)C(=O)N[C@@H](CC(N)=O)C(=O)N[C@@H](CC(C)C)C(=O)N[C@H](C(=O)N[C@@H](CCCNC(=N)N)C(=O)N[C@H](C(=O)NCC(=O)N[C@@H](CC(C)C)C(=O)N[C@H](C(=O)N[C@@H](CCCNC(=N)N)C(N)=O)[C@@H](C)O)[C@@H](C)CC)C(C)C
B6 was tested, and the IC50 (PCSK9Δhelix) was < 10000 nM.

Source: patent US20190177366A1 (published 2019)
